Ends that are not written are not given here. * marks the point of attachment. Biotin = O=C1N[C@H]2[C@H](CS[C@H]2CCCCC(=O)*)N1; Ahx = NCCCCCC(=O)O
Target: calmodulin (CaM), recombinant (UniProt P0DP23 1-149)
Experiment: SPR

Kd: 4.7 ± 0.7 µM
koff: 0.00053 s⁻¹
kon: 130 M⁻¹ s⁻¹
Binder: {Biotin-Ahx}-KKRKKAKKDYQPNYFLSIPI [biotin-ahx-AKAP18δ-N (79–98)]
